According to patent US20220406376A1 (MacroGenics, published 2022):

B1: TRIDENT-A3 (bispecific antibody, human IgG1, kappa, L234A L235A)
chain 1: DIQMTQSPSSLSASVGDRVTITCRPSQDISNYLNWYQQKPDKTVKLLIYYTSRLRSGVPSRFSGSGSGTDFTFTISSLQPEDIATYFCQQGDTLPYTFGQGTKLEIKGGGSGGGGQVQLVQSGAEVKKPGASVKVSCKASGYTFTSYWINWVKQAPGQGLEWIGNIYPSDSYTNYNQKFKDKATITADKSTSTAYMELSSLRSEDTAVYYCTRDYGSAYSYSLWGQGTTVTVSSASTKGEVAACEKEVAALEKEVAALEKEVAALEKGGGDKTHTCPPCPAPEAAGGPSVFLFPPKPKDTLMISRTPEVTCVVVDVSHEDPEVKFNWYVDGVEVHNAKTKPREEQYNSTYRVVSVLTVLHQDWLNGKEYKCKVSNKALPAPIEKTISKAKGQPREPQVYTLPPSREEMTKNQVSLWCLVKGFYPSDIAVEWESNGQPENNYKTTPPVLDSDGSFFLYSKLTVDKSRWQQGNVFSCSVMHEALHNHYTQKSLSLSPGK
chain 2: DIQMTQSPSSLSASVGDRVTITCRPSQDISNYLNWYQQKPDKTVKLLIYYTSRLRSGVPSRFSGSGSGTDFTFTISSLQPEDIATYFCQQGDTLPYTFGQGTKLEIKGGGSGGGGQVQLVQSGAEVKKPGASVKVSCKASGYTFTSYWINWVKQAPGQGLEWIGNIYPSDSYTNYNQKFKDKATITADKSTSTAYMELSSLRSEDTAVYYCTRDYGSAYSYSLWGQGTTVTVSSASTKGKVAACKEKVAALKEKVAALKEKVAALKE
heavy: QVQLVQSGAEVKKPGASVKVSCKASGYTFTNYGMNWVRQAPGQGLEWMGWINTNIGEPTYTEEFKGRVTMTRDTSISTAYMELSRLRSDDTAVYYCARDDGYGNRVSYWGQGTLVTVSSASTKGPSVFPLAPSSKSTSGGTAALGCLVKDYFPEPVTVSWNSGALTSGVHTFPAVLQSSGLYSLSSVVTVPSSSLGTQTYICNVNHKPSNTKVDKRVEPKSCDKTHTCPPCPAPEAAGGPSVFLFPPKPKDTLMISRTPEVTCVVVDVSHEDPEVKFNWYVDGVEVHNAKTKPREEQYNSTYRVVSVLTVLHQDWLNGKEYKCKVSNKALPAPIEKTISKAKGQPREPQVYTLPPSREEMTKNQVSLSCAVKGFYPSDIAVEWESNGQPENNYKTTPPVLDSDGSFFLVSKLTVDKSRWQQGNVFSCSVMHEALHNRYTQKSLSLSPGK
light: DIQMTQSPSSLSASVGDRVTITCKASQDISNYLSWFQQKPGKAPKTLIYRANRLQSGVPSRFSGSGSGTDFTLTISSLQPEDFATYYCLQHDEFPWTFGQGTKLEIKRTVAAPSVFIFPPSDEQLKSGTASVVCLLNNFYPREAKVQWKVDNALQSGNSQESVTEQDSKDSTYSLSSTLTLSKADYEKHKVYACEVTHQGLSSPVTKSFNRGEC
B2: TRIDENT-A (bispecific antibody, human IgG1, kappa, L234A L235A)
chain 1: DIQMTQSPSSLSASVGDRVTITCRPSQDISNYLNWYQQKPDKTVKLLIYYTSRLRSGVPSRFSGSGSGTDFTFTISSLQPEDIATYFCQQGDTLPYTFGQGTKLEIKGGGSGGGGQVQLVQSGAEVKKPGASVKVSCKASGYTFTSYWINWVKQAPGQGLEWIGNIYPSDSYTNYNQKFKDKATITADKSTSTAYMELSSLRSEDTAVYYCTRDYGSSYSFDYWGQGTTVTVSSASTKGEVAACEKEVAALEKEVAALEKEVAALEKGGGDKTHTCPPCPAPEAAGGPSVFLFPPKPKDTLMISRTPEVTCVVVDVSHEDPEVKFNWYVDGVEVHNAKTKPREEQYNSTYRVVSVLTVLHQDWLNGKEYKCKVSNKALPAPIEKTISKAKGQPREPQVYTLPPSREEMTKNQVSLWCLVKGFYPSDIAVEWESNGQPENNYKTTPPVLDSDGSFFLYSKLTVDKSRWQQGNVFSCSVMHEALHNHYTQKSLSLSPGK
chain 2: DIQMTQSPSSLSASVGDRVTITCRPSQDISNYLNWYQQKPDKTVKLLIYYTSRLRSGVPSRFSGSGSGTDFTFTISSLQPEDIATYFCQQGDTLPYTFGQGTKLEIKGGGSGGGGQVQLVQSGAEVKKPGASVKVSCKASGYTFTSYWINWVKQAPGQGLEWIGNIYPSDSYTNYNQKFKDKATITADKSTSTAYMELSSLRSEDTAVYYCTRDYGSSYSFDYWGQGTTVTVSSASTKGKVAACKEKVAALKEKVAALKEKVAALKE
heavy: QVQLVQSGAEVKKPGASVKVSCKASGYTFTNYGMNWVRQAPGQGLEWMGWINTNIGEPTYTEEFKGRVTMTRDTSISTAYMELSRLRSDDTAVYYCARDDGYGNRVSYWGQGTLVTVSSASTKGPSVFPLAPSSKSTSGGTAALGCLVKDYFPEPVTVSWNSGALTSGVHTFPAVLQSSGLYSLSSVVTVPSSSLGTQTYICNVNHKPSNTKVDKRVEPKSCDKTHTCPPCPAPEAAGGPSVFLFPPKPKDTLMISRTPEVTCVVVDVSHEDPEVKFNWYVDGVEVHNAKTKPREEQYNSTYRVVSVLTVLHQDWLNGKEYKCKVSNKALPAPIEKTISKAKGQPREPQVYTLPPSREEMTKNQVSLSCAVKGFYPSDIAVEWESNGQPENNYKTTPPVLDSDGSFFLVSKLTVDKSRWQQGNVFSCSVMHEALHNRYTQKSLSLSPGK
light: DIQMTQSPSSLSASVGDRVTITCKASQDISNYLSWFQQKPGKAPKTLIYRANRLQSGVPSRFSGSGSGTDFTLTISSLQPEDFATYYCLQHDEFPWTFGQGTKLEIKRTVAAPSVFIFPPSDEQLKSGTASVVCLLNNFYPREAKVQWKVDNALQSGNSQESVTEQDSKDSTYSLSSTLTLSKADYEKHKVYACEVTHQGLSSPVTKSFNRGEC
B3: TRIDENT-A2 (bispecific antibody, human IgG1, kappa, L234A L235A)
chain 1: DIQMTQSPSSLSASVGDRVTITCRPSQDISNYLNWYQQKPDKTVKLLIYYTSRLRSGVPSRFSGSGSGTDFTFTISSLQPEDIATYFCQQGDTLPYTFGQGTKLEIKGGGSGGGGQVQLVQSGAEVKKPGASVKVSCKASGYTFTSYWINWVKQAPGQGLEWIGNIYPSDSYTNYNQKFKDKATITADKSTSTAYMELSSLRSEDTAVYYCTRDYGSAYSMSTWGQGTTVTVSSASTKGEVAACEKEVAALEKEVAALEKEVAALEKGGGDKTHTCPPCPAPEAAGGPSVFLFPPKPKDTLMISRTPEVTCVVVDVSHEDPEVKFNWYVDGVEVHNAKTKPREEQYNSTYRVVSVLTVLHQDWLNGKEYKCKVSNKALPAPIEKTISKAKGQPREPQVYTLPPSREEMTKNQVSLWCLVKGFYPSDIAVEWESNGQPENNYKTTPPVLDSDGSFFLYSKLTVDKSRWQQGNVFSCSVMHEALHNHYTQKSLSLSPGK
chain 2: DIQMTQSPSSLSASVGDRVTITCRPSQDISNYLNWYQQKPDKTVKLLIYYTSRLRSGVPSRFSGSGSGTDFTFTISSLQPEDIATYFCQQGDTLPYTFGQGTKLEIKGGGSGGGGQVQLVQSGAEVKKPGASVKVSCKASGYTFTSYWINWVKQAPGQGLEWIGNIYPSDSYTNYNQKFKDKATITADKSTSTAYMELSSLRSEDTAVYYCTRDYGSAYSMSTWGQGTTVTVSSASTKGKVAACKEKVAALKEKVAALKEKVAALKE
heavy: QVQLVQSGAEVKKPGASVKVSCKASGYTFTNYGMNWVRQAPGQGLEWMGWINTNIGEPTYTEEFKGRVTMTRDTSISTAYMELSRLRSDDTAVYYCARDDGYGNRVSYWGQGTLVTVSSASTKGPSVFPLAPSSKSTSGGTAALGCLVKDYFPEPVTVSWNSGALTSGVHTFPAVLQSSGLYSLSSVVTVPSSSLGTQTYICNVNHKPSNTKVDKRVEPKSCDKTHTCPPCPAPEAAGGPSVFLFPPKPKDTLMISRTPEVTCVVVDVSHEDPEVKFNWYVDGVEVHNAKTKPREEQYNSTYRVVSVLTVLHQDWLNGKEYKCKVSNKALPAPIEKTISKAKGQPREPQVYTLPPSREEMTKNQVSLSCAVKGFYPSDIAVEWESNGQPENNYKTTPPVLDSDGSFFLVSKLTVDKSRWQQGNVFSCSVMHEALHNRYTQKSLSLSPGK
light: DIQMTQSPSSLSASVGDRVTITCKASQDISNYLSWFQQKPGKAPKTLIYRANRLQSGVPSRFSGSGSGTDFTLTISSLQPEDFATYYCLQHDEFPWTFGQGTKLEIKRTVAAPSVFIFPPSDEQLKSGTASVVCLLNNFYPREAKVQWKVDNALQSGNSQESVTEQDSKDSTYSLSSTLTLSKADYEKHKVYACEVTHQGLSSPVTKSFNRGEC

What was measured:
[1] = target: T1, HER2/neu on the surface of target cells (N87, JIMT-1, MCF-7, MDA-MB231) (UniProt P04626 23-1255, limits assumed); assay: flow cytometry on JIMT-1 cells, anti-hFc APC MFI
T1 construct: whole, on cells

[2] = target: T1, HER2/neu on the surface of target cells …; assay: flow cytometry on MCF-7 cells, anti-hFc APC MFI
[3] = target: T2, CD137 on the surface of cells (activated human T cells; engineered CHO cells) (human, UniProt Q07011 24-255); assay: flow cytometry on activated pan T cells (donor D46433, CD8 PE), anti-hFc APC MFI
T2 construct: whole, on cells; also called human CD137; cell surface expressed CD137
T2 sequence (Q07011 24-255, change not shown): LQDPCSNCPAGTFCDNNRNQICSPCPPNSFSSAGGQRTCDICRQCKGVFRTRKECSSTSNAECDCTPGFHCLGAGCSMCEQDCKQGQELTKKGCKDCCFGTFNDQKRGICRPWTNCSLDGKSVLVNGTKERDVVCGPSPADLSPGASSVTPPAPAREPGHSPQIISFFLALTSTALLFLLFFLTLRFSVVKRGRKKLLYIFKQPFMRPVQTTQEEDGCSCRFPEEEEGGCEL

[4] = target: T1, HER2/neu on the surface of target cells …; assay: flow cytometry on N87 cells, anti-hFc APC MFI

Row | Binder | EC50 (read off the curve) [1] [nM] | EC50 (read off the curve) [2] [nM] | EC50 (read off the curve) [3] [nM] | EC50 (read off the curve) [4] [nM]
1 | B1 | ~0.7 | ~0.2 | ~0.05 | ~1
2 | B2 | ~0.9 | ~0.2 | ~0.06 | ~1
3 | B3 | ~0.7 | ~0.2 | ~0.04 | ~1
